Blank lines part the entries; values can stand above or below the molecule they belong to.
How the values were obtained:
[1] = target: FG-Nup153^Glc labelled for stopped-flow kinetics; assay: stopped-flow fluorescence anisotropy; association under pseudo-first order conditions (>10-fold excess of the NTR); kobs from single exponential fits, kon from the slope of kobs versus NTR concentration; excitation 532 nm
[2] = target: FG-Nup153 labelled for stopped-flow kinetics; assay: stopped-flow fluorescence, dissociation; preformed FG-Nup⋅NTR complex rapidly mixed with 100× (2 μM) excess of unlabeled FG-Nup
[3] = target: FG-Nup214 labelled for stopped-flow anisotropy; assay: stopped-flow fluorescence anisotropy; association under pseudo-first order conditions (>10-fold excess of the NTR); kobs from single exponential fits, kon from the slope of kobs versus NTR concentration; excitation 532 nm
[4] = target: FG-Nup214^Glc labelled for stopped-flow kinetics; assay: as above
[5] = target: FG-Nup214 labelled for stopped-flow anisotropy; assay: stopped-flow fluorescence, dissociation; preformed FG-Nup⋅NTR complex rapidly mixed with 100× (2 μM) excess of unlabeled FG-Nup
[6] = target: FG-Nup214^117 proline double mutant A1927P/A2017P; assay: single-molecule FRET (smFRET) titration; fractions of bound (low E_FRET) and unbound (high E_FRET) FG-Nup214^117 as a function of CRM1 concentration, with 1 μM RanGTP
[7] = target: FG-Nup214^117 proline triple mutant A1927P/A2017P/A2019P; assay: as above
[8] = target: FG-Nup214^117 (117-aa fragment of FG-Nup214), wild type, labelled for FRET; assay: as above
[9] = target: T1, CRM1 (export receptor, exportin) (UniProt O14980 1-1071); assay: stopped-flow fluorescence (donor signal of a FRET-labelled sample); association; donor signal change of FRET-labelled FG-Nup214 instead of anisotropy; details: both partners purified
T1 construct: exportin CRM1; Construct details in the Supplemental Experimental Procedures; also called exportin CRM1
T1 sequence (O14980 whole entry): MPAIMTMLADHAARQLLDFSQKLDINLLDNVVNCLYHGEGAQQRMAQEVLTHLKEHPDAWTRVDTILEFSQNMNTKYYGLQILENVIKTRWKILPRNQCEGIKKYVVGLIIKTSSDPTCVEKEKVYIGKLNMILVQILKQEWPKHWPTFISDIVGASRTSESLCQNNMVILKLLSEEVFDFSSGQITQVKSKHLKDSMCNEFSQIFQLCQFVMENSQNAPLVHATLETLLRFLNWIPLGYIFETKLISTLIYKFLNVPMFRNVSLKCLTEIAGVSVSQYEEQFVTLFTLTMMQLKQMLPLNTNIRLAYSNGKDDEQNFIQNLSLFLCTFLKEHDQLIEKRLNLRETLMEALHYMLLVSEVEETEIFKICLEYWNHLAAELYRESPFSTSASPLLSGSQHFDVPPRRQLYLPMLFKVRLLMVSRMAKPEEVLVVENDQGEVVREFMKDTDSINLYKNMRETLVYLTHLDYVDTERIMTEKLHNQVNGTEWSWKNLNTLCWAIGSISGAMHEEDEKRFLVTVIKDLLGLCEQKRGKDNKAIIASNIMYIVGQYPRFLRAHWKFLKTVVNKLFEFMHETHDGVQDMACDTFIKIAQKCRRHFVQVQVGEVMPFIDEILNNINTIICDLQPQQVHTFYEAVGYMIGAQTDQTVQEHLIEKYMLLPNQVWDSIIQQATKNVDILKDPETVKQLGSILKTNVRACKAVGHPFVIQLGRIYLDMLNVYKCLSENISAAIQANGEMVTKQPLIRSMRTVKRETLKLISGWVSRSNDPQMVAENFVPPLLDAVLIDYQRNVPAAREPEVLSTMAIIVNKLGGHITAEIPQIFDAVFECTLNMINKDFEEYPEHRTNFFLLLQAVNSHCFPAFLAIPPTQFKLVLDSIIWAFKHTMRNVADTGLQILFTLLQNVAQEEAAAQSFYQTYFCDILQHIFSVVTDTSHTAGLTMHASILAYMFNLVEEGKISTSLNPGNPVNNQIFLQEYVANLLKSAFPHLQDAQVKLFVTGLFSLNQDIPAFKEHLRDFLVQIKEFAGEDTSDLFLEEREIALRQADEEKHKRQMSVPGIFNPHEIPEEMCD

kon [1]: 8.5e+08 M⁻¹ s⁻¹ | complex half-life [2]: 0.08 s | koff [2]: 8.7 s⁻¹
Molecule: Importinβ (import receptor) (from UniProt Q14974 1-876)

kon [9]: 3e+07 M⁻¹ s⁻¹
B1: FG-Nup214 (FG domain of Nup214), double-labelled for FRET (domain or fragment)
chain: ATTTSVAPPAATSTSSTAVFGSLPVTSAGSSGVISFGGTSLSAGKTSFSFGSQQTNSTVPPSAPPPTTAATPLPTSFPTLSFGSLLSSATTPSLPMSAGRSTEEATSSALPEKPGDSEVSASAASLLEEQQSAQLPQAPPQTSDSVKKEPVLAQPAVSNSGTAASSTSLVALSAEATPATTGVPDARTEAVPPASSFSVPGQTAVTAAAISSAGPVAVETSSTPIASSTTSIVAPGPSAEAAAFGTVTSGSSVFAQPPAASSSSAFNQLTNNTATAPSATPVFGQVAASTAPSLFGQQTGSTASTAAATPQVSSSGFSSPAFGTTAPGVFGQTTFGQASVFGQSASSAASVFSFSQPGFSSVPAFGQPASSTPTSTSGSVFGAASSTSSSSSFSFGQSSPNTGGGLFGQSNAPAFGQSPGFGQGGSVFGGTSAATTTAATSGFSFCQASGFGSSNTGSVFGQAASTGGIVFGQQSSSSSGSVFGSGNTGRGGGFFSGLGGKPSQDAANKNPFSCASGGFGSTATSNTSNLFGNSGAKTFGGFASSSFGEQKPTGTFSSGGGSVASQGFGFSSPNKTGGFGAAPVFGSPPTFGGSPGFGGVPAFGSAPAFTSPLGSTGGKVFGEGTAAASAGGFGFGSSSNTTSFGTLASQNAPTFGSLSQQTSGFGTQSSGFSGFGSGTGGFSFGSNNSSVQGFGGWRS
modifications: Alexa594-maleimide (acceptor) on the Cys introduced at 1,905; p-acetylphenylalanine (AcF) at 2,043 labelled with Alexa488-hydroxylamine (donor)

Further lines, the molecule ahead of its results:

Molecule: CRM1 (export receptor, exportin) (from UniProt O14980 1-1071)
kon [3]: 4e+07 M⁻¹ s⁻¹ | kon [4]: 3.8e+07 M⁻¹ s⁻¹

Molecule: CRM1⋅RanGTP complex (from UniProt O14980 1-1071; P62826 1-216)
kon [3]: 2.1e+07 M⁻¹ s⁻¹ | kon [4]: 1.3e+07 M⁻¹ s⁻¹ | complex half-life [5]: 5 s | koff [5]: 0.14 s⁻¹ | Kd [6]: 53 nM | Kd [7]: 222 nM | Kd [8]: 35 nM
